For data set [1], the target named is T1, alkaline ceramidase 3 (ACER3) (Homo sapiens, UniProt Q9NUN7).
T1 sequence (Q9NUN7 1-267): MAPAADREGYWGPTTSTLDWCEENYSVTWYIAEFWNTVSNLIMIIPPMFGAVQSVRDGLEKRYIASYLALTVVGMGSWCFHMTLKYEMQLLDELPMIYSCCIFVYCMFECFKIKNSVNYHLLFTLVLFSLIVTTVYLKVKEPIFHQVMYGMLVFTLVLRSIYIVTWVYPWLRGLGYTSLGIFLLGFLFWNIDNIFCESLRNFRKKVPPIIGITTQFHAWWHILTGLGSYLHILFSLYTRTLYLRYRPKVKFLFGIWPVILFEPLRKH
Kind of data set: microsomal ceramidase activity assay with NBD-C12-PHC, HPLC fluorescence; Lineweaver-Burk kinetics. The class given is biochemical.

Substrate in data set [2]: CCCCCCCCCCCCCC[C@@H](O)[C@@H](O)[C@H](CO)NC(=O)CCCCCCCCCCCNc1ccc([N+](=O)[O-])c2nonc12
Kind of data set: cells, lysate or membranes. The class given is biochemical, Homo sapiens.

Substrate in data set [3]: CCCCCCCCCCCCCC[C@@H](O)[C@@H](O)[C@H](CO)NC(=O)CCCCCCCCCCCNc1ccc([N+](=O)[O-])c2nonc12
Kind of data set: Michaelis-Menten kinetics (KM), microsomal assay with HPLC fluorescence. As to conditions: Zn2+ (Ca2+ in buffer) Zn2+ active site. The class given is biochemical, Homo sapiens.

The text below walks through data of paper PMC9436119, “Alkaline ceramidase catalyzes the hydrolysis of ceramides via a catalytic mechanism shared by Zn^2+-dependent amidases” (PLoS ONE, 2022).

What is called IC50 is the concentration that inhibits the measured activity by half. A high value points to lower potency. A word on the Km: it is the concentration of substrate that gives half-maximal velocity.

For the molecule `CC(/C=C/C(=O)NO)=C\[C@@H](C)C(=O)c1ccc(N(C)C)cc1` [TSA, Trichostatin A], the concentration for half-maximal inhibition (IC50) in data set [1] is 71.4 µM.

B1: alkaline ceramidase 3 (ACER3) (Homo sapiens) (protein)
chain: MAPAADREGYWGPTTSTLDWCEENYSVTWYIAEFWNTVSNLIMIIPPMFGAVQSVRDGLEKRYIASYLALTVVGMGSWCFHMTLKYEMQLLDELPMIYSCCIFVYCMFECFKIKNSVNYHLLFTLVLFSLIVTTVYLKVKEPIFHQVMYGMLVFTLVLRSIYIVTWVYPWLRGLGYTSLGIFLLGFLFWNIDNIFCESLRNFRKKVPPIIGITTQFHAWWHILTGLGSYLHILFSLYTRTLYLRYRPKVKFLFGIWPVILFEPLRKH
notes: FLAG-tagged open reading frame of wild-type ACER3, in microsomes of yeast Δypc1Δydc1 cells
For the molecule B1, in data set [2] (Zn2+ (Ca2+ in buffer) Zn2+ active site (His81, His217, His221, Asp92, Ser77)), the Michaelis-Menten constant (Km) is 15.48 ± 1.248 µM.

B2: alkaline ceramidase 3 (ACER3) (Homo sapiens; S77A) (protein)
chain: MAPAADREGYWGPTTSTLDWCEENYSVTWYIAEFWNTVSNLIMIIPPMFGAVQSVRDGLEKRYIASYLALTVVGMGAWCFHMTLKYEMQLLDELPMIYSCCIFVYCMFECFKIKNSVNYHLLFTLVLFSLIVTTVYLKVKEPIFHQVMYGMLVFTLVLRSIYIVTWVYPWLRGLGYTSLGIFLLGFLFWNIDNIFCESLRNFRKKVPPIIGITTQFHAWWHILTGLGSYLHILFSLYTRTLYLRYRPKVKFLFGIWPVILFEPLRKH
notes: FLAG-tagged ACER3 S77A, in microsomes of yeast Δypc1Δydc1 cells
For B2, the Michaelis-Menten constant (Km) in data set [3] is 38 µM.

B3: alkaline ceramidase 3 (ACER3) (Homo sapiens; S77C) (protein)
chain: MAPAADREGYWGPTTSTLDWCEENYSVTWYIAEFWNTVSNLIMIIPPMFGAVQSVRDGLEKRYIASYLALTVVGMGCWCFHMTLKYEMQLLDELPMIYSCCIFVYCMFECFKIKNSVNYHLLFTLVLFSLIVTTVYLKVKEPIFHQVMYGMLVFTLVLRSIYIVTWVYPWLRGLGYTSLGIFLLGFLFWNIDNIFCESLRNFRKKVPPIIGITTQFHAWWHILTGLGSYLHILFSLYTRTLYLRYRPKVKFLFGIWPVILFEPLRKH
notes: FLAG-tagged ACER3 S77C, in microsomes of yeast Δypc1Δydc1 cells
Take B3: the Km in data set [2] (Zn2+ (Ca2+ in buffer) Zn2+ active site) was determined as 66.43 ± 6.143 µM.
